# Laboratory results: US10253076B2, “Peptides and combination of peptides for use in immunotherapy against ovarian cancer and other cancers” (immatics biotechnologies GmbH, priority 2015, dated 2019)
# Biological target: HLA-A*02:01 (Homo sapiens, UniProt P04439, D140Y/D185E/D98H/E176V/E277Q/G131W/G231S/I119V/I121R/I166T/I218V/L300P/L318F/N151K/N90K/P208A/P217A/Q86G/Q94H/R138H/R169H/T345S)
# Experiment: MHC binding assay (UV-ligand exchange, beta2m ELISA, peptide exchange yield)
# Settings: binding of HLA-class I restricted peptides to HLA-A*02:01, ranged by peptide exchange yield (UV-ligand exchange, β2m ELISA)
# Procedure, shortened: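 Readout is a β2m ELISA: stabilized complexes captured on streptavidin, detected with HRP-conjugated anti-β2m and TMB at 450 nm, reporting peptide exchange yield. Complexes come from UV-light cleavage of a conditional ligand in HLA-A*02:01 and replacement by the candidate peptide, samples diluted 100-fold.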
row,Substance,Peptide exchange
1,528 (SVAEGRALMSV; listed as Homo sapiens) [compound 528],″+++″ (≥50% = +++)
2,529 (LLADELITV; listed as Homo sapiens) [compound 529],″+++″ (≥50% = +++)
3,530 (VMYADIGGMDI; listed as Homo sapiens) [compound 530],″+++″ (≥50% = +++)
4,531 (YTLPIASSIRL; listed as Homo sapiens) [compound 531],″+++″ (≥50% = +++)
5,537 (TLAPGEVLRSV; listed as Homo sapiens) [compound 537],″+++″ (≥50% = +++)
6,538 (LLLAHIIAL; listed as Homo sapiens) [compound 538],″++″ (≥20% = ++)
7,539 (ALFDAQAQV; listed as Homo sapiens) [compound 539],″+++″ (≥50% = +++)
8,541 (SMLEPVPEL; listed as Homo sapiens) [compound 541],″+++″ (≥50% = +++)
9,542 (RVWDISTVSSV; listed as Homo sapiens) [compound 542],″+++″ (≥50% = +++)
10,543 (GLLPTPITQQASL; listed as Homo sapiens) [compound 543],″+++″ (≥50% = +++)
11,544 (LLWDVPAPSL; listed as Homo sapiens) [compound 544],″+++″ (≥50% = +++)
12,545 (LLADLLHNV; listed as Homo sapiens) [compound 545],″+++″ (≥50% = +++)
13,546 (VMIAGKVAVV; listed as Homo sapiens) [compound 546],″+++″ (≥50% = +++)
14,547 (TLDITPHTV; listed as Homo sapiens) [compound 547],″+++″ (≥50% = +++)
15,548 (ALWENPESGEL; listed as Homo sapiens) [compound 548],″++″ (≥20% = ++)
16,549 (AMLENASDIKL; listed as Homo sapiens) [compound 549],″+++″ (≥50% = +++)
17,550 (FLYDEIEAEVNL; listed as Homo sapiens) [compound 550],″+++″ (≥50% = +++)
18,551 (KLYESLLPFA; listed as Homo sapiens) [compound 551],″+++″ (≥50% = +++)
19,552 (GLLDLPFRVGV; listed as Homo sapiens) [compound 552],″++++″ (≥75% = ++++)
20,553 (SLLNQDLHWSL; listed as Homo sapiens) [compound 553],″++++″ (≥75% = ++++)

row,Substance,Peptide exchange
1,554 (LLMPSSEDLLL; listed as Homo sapiens) [compound 554],″+++″ (≥50% = +++)
2,555 (YVLEGLKSV; listed as Homo sapiens) [compound 555],″+++″ (≥50% = +++)
3,556 (FLTDLEDLTL; listed as Homo sapiens) [compound 556],″+++″ (≥50% = +++)
4,557 (KLYDDMIRL; listed as Homo sapiens) [compound 557],″+++″ (≥50% = +++)
5,558 (GLLENIPRV; listed as Homo sapiens) [compound 558],″+++″ (≥50% = +++)
6,559 (VTVPPGPSL; listed as Homo sapiens) [compound 559],″++″ (≥20% = ++)
7,560 (ALWDIETGQQTTT; listed as Homo sapiens) [compound 560],″+++″ (≥50% = +++)
8,561 (YLQLTQSEL; listed as Homo sapiens) [compound 561],″+++″ (≥50% = +++)
9,562 (YLEELPEKLKL; listed as Homo sapiens) [compound 562],″+++″ (≥50% = +++)
10,563 (WLLPYNGVTV; listed as Homo sapiens) [compound 563],″+++″ (≥50% = +++)
11,564 (TVTNAVVTV; listed as Homo sapiens) [compound 564],″+++″ (≥50% = +++)
12,565 (ALQETPTSV; listed as Homo sapiens) [compound 565],″++″ (≥20% = ++)
13,566 (VIADGGIQNV; listed as Homo sapiens) [compound 566],″++″ (≥20% = ++)
14,567 (SLLPLDDIVRV; listed as Homo sapiens) [compound 567],″+++″ (≥50% = +++)
15,568 (TLYDIAHTPGV; listed as Homo sapiens) [compound 568],″++++″ (≥75% = ++++)
16,569 (KLVDRTWTL; listed as Homo sapiens) [compound 569],″+++″ (≥50% = +++)
17,570 (ALANQIPTV; listed as Homo sapiens) [compound 570],″++″ (≥20% = ++)
18,571 (LLLTTIPQI; listed as Homo sapiens) [compound 571],″+++″ (≥50% = +++)
19,572 (ALADLIEKELSV; listed as Homo sapiens) [compound 572],″+++″ (≥50% = +++)
20,573 (ILVANAIVGV; listed as Homo sapiens) [compound 573],″+++″ (≥50% = +++)

row,Substance,Peptide exchange
1,574 (YLLQEPPRTV; listed as Homo sapiens) [compound 574],″++″ (≥20% = ++)
2,575 (YLISQVEGHQV; listed as Homo sapiens) [compound 575],″+++″ (≥50% = +++)
3,576 (ILLNNSGQIKL; listed as Homo sapiens) [compound 576],″++++″ (≥75% = ++++)
4,577 (VMFEDGVLMRL; listed as Homo sapiens) [compound 577],″+++″ (≥50% = +++)
5,578 (FLDPGGPMMKL; listed as Homo sapiens) [compound 578],″+++″ (≥50% = +++)
6,579 (NLMEMVAQL; listed as Homo sapiens) [compound 579],″++″ (≥20% = ++)
7,580 (LLMENAERV; listed as Homo sapiens) [compound 580],″++″ (≥20% = ++)
8,582 (TLCDVILMV; listed as Homo sapiens) [compound 582],″+++″ (≥50% = +++)
9,583 (ILANDGVLLAA; listed as Homo sapiens) [compound 583],″+++″ (≥50% = +++)
10,584 (ALAEVAAMENV; listed as Homo sapiens) [compound 584],″+++″ (≥50% = +++)
11,585 (ALWDLAADKQTL; listed as Homo sapiens) [compound 585],″++++″ (≥75% = ++++)
12,586 (KLKPGDLVGV; listed as Homo sapiens) [compound 586],″+++″ (≥50% = +++)
13,587 (VMNDRLYAI; listed as Homo sapiens) [compound 587],″+++″ (≥50% = +++)
14,588 (SLLPLSHLV; listed as Homo sapiens) [compound 588],″+++″ (≥50% = +++)
15,589 (KLYPQLPAEI; listed as Homo sapiens) [compound 589],″+++″ (≥50% = +++)
16,590 (SLIEKLWQT; listed as Homo sapiens) [compound 590],″++″ (≥20% = ++)
17,591 (SMAELDIKL; listed as Homo sapiens) [compound 591],″+++″ (≥50% = +++)
18,592 (RLLSAAENFL; listed as Homo sapiens) [compound 592],″+++″ (≥50% = +++)
